# Measurements from paper PMC4018323 (Cell, 2014).
# Positions count from the first letter of the chain named.
# T1: 6xHis-SUMO-tagged MYO18A motor domain (aa 408-1,242) (UniProt Q92614 408-1242)
# T1 sequence (looked up): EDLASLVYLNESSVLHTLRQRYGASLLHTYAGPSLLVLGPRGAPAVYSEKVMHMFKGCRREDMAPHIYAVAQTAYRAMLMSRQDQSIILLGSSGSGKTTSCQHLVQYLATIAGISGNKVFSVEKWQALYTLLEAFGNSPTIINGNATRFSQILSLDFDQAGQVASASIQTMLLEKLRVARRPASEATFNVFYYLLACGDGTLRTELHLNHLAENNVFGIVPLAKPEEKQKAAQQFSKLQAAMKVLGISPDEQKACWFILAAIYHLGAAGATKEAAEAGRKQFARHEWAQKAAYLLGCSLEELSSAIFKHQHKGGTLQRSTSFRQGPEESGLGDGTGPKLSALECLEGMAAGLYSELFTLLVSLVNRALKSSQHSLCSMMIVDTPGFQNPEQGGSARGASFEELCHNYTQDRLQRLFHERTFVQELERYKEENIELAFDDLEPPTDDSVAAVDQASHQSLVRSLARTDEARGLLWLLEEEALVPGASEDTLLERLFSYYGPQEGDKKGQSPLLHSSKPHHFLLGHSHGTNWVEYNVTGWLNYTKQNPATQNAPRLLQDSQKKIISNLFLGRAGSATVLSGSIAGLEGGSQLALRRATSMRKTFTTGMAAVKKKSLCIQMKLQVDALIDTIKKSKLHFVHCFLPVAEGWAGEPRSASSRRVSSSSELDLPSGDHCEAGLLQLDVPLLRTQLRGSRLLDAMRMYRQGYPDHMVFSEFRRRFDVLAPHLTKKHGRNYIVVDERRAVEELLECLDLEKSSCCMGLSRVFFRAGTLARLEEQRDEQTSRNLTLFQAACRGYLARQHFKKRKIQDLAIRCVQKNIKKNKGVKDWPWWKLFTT
# B1: GOLPH3 DQ-DVQ phosphomimetic mutant, purified, bacterially expressed (natural protein, UniProt Q9H4A6 1-298, looked up)
# chain: MTSLTQRSSGLVQRRTEASRNAADKERAAGGGAGSSEDDAQSRRDEQDDDDKGDSKETRLTLMEEVLLLGLKDREGYTSFWNDCISSGLRGCMLIELALRGRLQLEACGMRRKSLLTRKVICKSDAPTGDVLLDEALKHVKEDQPPEDVQNWIELLSGETWNPLKLHYQLRNVRERLAKNLVEKGVLTTEKQNFLLFDMTTHPLTNNNIKQRLIKKVQEAVLDKWVNDPHRMDRRLLALIYLAHASDVLENAFAPLLDEQYDLATKRVRQLLDLDPEVECLKANTNEVLWAVVAAFTK
# B2: GOLPH3 EQ-EVQ phosphomimetic mutant, purified, bacterially expressed (natural protein, UniProt Q9H4A6 1-298, looked up)
# chain: B1 chain with D143E, D148E
# Target: T1, 6xHis-SUMO-tagged MYO18A motor domain …
# Test: pull-down
row,Binder,fold of interaction versus WT [fold]
1,B1,2.2
2,B2,1.9
